From patent US7419799 (GENETECH, dated 2008)
Each block holds one binder with its values, some of them ahead of it.

Assays:
SHP2 [1] = biological target: T1, SHP2 (human, UniProt Q06124 2-593); experiment: co-immunoprecipitation from isolated human CD4+ T cells (untreated), Western blot
T1 sequence (looked up): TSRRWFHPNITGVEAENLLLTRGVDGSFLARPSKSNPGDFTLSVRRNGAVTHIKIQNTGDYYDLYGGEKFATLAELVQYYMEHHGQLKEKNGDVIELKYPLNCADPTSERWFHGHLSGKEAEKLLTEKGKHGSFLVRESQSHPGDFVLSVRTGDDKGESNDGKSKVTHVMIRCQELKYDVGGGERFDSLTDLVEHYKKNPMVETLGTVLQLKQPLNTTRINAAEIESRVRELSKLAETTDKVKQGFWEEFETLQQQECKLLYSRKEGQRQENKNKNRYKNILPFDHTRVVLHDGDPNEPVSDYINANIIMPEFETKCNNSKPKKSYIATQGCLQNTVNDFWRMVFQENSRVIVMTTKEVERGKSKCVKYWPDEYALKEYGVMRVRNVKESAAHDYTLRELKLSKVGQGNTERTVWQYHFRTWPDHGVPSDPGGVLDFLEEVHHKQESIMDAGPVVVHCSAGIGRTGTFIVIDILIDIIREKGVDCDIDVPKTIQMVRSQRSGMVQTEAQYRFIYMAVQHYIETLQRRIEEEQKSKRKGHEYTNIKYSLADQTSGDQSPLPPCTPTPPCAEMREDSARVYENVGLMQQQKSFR

SHP1 [2] = biological target: T2, SHP1 (human, UniProt P29350 1-595); experiment: as above
T2 sequence (P29350 whole entry): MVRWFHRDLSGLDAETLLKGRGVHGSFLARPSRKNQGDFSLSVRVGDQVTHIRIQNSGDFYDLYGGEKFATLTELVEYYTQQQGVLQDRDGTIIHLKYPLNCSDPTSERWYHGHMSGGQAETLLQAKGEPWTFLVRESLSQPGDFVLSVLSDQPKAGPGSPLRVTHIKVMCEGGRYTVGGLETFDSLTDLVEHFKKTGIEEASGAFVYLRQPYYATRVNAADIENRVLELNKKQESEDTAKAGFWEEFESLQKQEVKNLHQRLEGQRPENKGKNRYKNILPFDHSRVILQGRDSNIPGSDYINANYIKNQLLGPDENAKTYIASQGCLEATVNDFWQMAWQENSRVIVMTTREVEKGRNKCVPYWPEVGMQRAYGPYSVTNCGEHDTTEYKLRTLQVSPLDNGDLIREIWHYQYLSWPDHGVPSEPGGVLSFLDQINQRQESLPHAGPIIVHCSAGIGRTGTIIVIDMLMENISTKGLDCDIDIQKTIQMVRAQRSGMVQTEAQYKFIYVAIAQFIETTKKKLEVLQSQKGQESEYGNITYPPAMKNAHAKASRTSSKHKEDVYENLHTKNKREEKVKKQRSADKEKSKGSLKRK

SHP2 [3] = biological target: T1, SHP2; experiment: co-immunoprecipitation from isolated human CD4+ T cells (CD3 and PRO20080 cross-linked), Western blot
SHP1 [4] = biological target: T2, SHP1; experiment: as above
[5] = biological target: the molecule itself; experiment: BIAcore, homotypic interaction of His-tagged PRO20080
Description: Lastly, a BIAcore® assay was performed to determine if a His-tagged PRO20080 would associate with itself. The association rate can be determined by any method in which formation of the complex may be observed as a function of time. In the BIAcore® analysis, in which one measures the association of the protein to an protein that has been immobilized on a biosensor surface (reviewed by Rich & Myszka, Curr. Opin. Biotechnol. 11:54-61 (2000)).

binding result (SHP2 [1]): no binding
binding result (SHP1 [2]): no binding
B1: wild type PRO20080 (full-length, expressed in cells) (receptor)
chain: FGPGNVVSQSSLTPLMVNGILGESVTLPLEFPAGEKVNFITWLFNETSLAFIVPHETKSPEIHVTNPKQGKRLNFTQSYSLQLSNLKMEDTGSYRAQISTKTSAKLSSYTLRILRQLRNIQVTNHSQLFQNMTCELHLTCSVEDADDNVSFRWEALGNTLSSQPNLTVSWDPRISSEQDYTCIAENAVSNLSFSVSAQKLCEDVKIQYTDTKMILFMVSGICIVFGFIILLLLVLRKRRDSLSLSTQRTQGPAESARNLEYVSVSPTNNTVYASVTHSNRETEIWTPRENDTITIYSTINHSKESKPTFSRATALDNVV
notes: also called PRO20080 receptor

binding result (SHP2 [3]): no binding
binding result (SHP1 [4]): no binding
B2: phosphorylated PRO20080 (receptor)
chain: FGPGNVVSQSSLTPLMVNGILGESVTLPLEFPAGEKVNFITWLFNETSLAFIVPHETKSPEIHVTNPKQGKRLNFTQSYSLQLSNLKMEDTGSYRAQISTKTSAKLSSYTLRILRQLRNIQVTNHSQLFQNMTCELHLTCSVEDADDNVSFRWEALGNTLSSQPNLTVSWDPRISSEQDYTCIAENAVSNLSFSVSAQKLCEDVKIQYTDTKMILFMVSGICIVFGFIILLLLVLRKRRDSLSLSTQRTQGPAESARNLEYVSVSPTNNTVYASVTHSNRETEIWTPRENDTITIYSTINHSKESKPTFSRATALDNVV
modifications: tyrosine-phosphorylated (detected with anti-phosphotyrosine antibody; sites not stated)
notes: The phosphorylated residues are not identified; also called PRO20080 in pervanadate treated cells; PRO20080 after CD3 and PRO20080 cross linking

B3: His-tagged PRO20080 (receptor)
chain: QSSLTPLMVNGILGESVTLPLEFPAGEKVNFITWLFNETSLAFIVPHETKSPEIHVTNPKQGKRLNFTQSYSLQLSNLKMEDTGSYRAQISTKTSAKLSSYTLRILRQLRNIQVTNHSQLFQNMTCELHLTCSVEDADDNVSFRWEALGNTLSSQPNLTVSWDPRISSEQDYTCIAENAVSNLSFSVSAQKLCEDVKIQYTDTKM
notes: In the BIAcore assay the same protein served as both the immobilized and the soluble partner; not shown: His tag
Kd [5]: > 100 µM
